Paper PMC3510454, “Elba, a novel developmentally regulated chromatin boundary factor is a hetero-tripartite DNA binding complex”

T1: GST-Elba1F;GST-Elba2F (Drosophila melanogaster?;Drosophila …, UniProt Q9VR17;Q9VQD6 1-363;1-381, |)
T1 sequence 1: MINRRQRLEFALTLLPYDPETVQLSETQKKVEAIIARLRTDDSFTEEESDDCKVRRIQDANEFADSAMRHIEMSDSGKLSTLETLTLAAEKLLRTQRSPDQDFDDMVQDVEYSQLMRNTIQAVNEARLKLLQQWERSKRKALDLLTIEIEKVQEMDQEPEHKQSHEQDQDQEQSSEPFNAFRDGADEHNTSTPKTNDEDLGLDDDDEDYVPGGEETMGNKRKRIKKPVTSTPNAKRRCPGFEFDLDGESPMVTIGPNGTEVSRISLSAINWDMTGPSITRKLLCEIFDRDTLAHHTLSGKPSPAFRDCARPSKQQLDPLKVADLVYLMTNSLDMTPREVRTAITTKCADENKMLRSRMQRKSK
T1 sequence 2: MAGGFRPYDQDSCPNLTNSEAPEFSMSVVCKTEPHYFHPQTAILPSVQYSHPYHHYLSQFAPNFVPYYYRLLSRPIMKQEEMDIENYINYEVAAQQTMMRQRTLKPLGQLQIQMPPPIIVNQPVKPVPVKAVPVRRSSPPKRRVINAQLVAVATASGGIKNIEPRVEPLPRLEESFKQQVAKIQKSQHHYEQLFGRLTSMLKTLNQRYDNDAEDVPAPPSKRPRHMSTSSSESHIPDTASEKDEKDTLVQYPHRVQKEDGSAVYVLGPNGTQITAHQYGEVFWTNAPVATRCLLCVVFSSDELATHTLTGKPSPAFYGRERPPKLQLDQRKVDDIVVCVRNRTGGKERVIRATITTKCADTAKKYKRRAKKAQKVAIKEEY

T2: GST-Elba1F;GST-Elba2F;FLAG-Elba3F (Drosophila melanogaster?;Drosophila …, UniProt Q9VR17;Q9VQD6;Q9VR19 1-363;1-381;1-379, ||)
T2 sequence 1: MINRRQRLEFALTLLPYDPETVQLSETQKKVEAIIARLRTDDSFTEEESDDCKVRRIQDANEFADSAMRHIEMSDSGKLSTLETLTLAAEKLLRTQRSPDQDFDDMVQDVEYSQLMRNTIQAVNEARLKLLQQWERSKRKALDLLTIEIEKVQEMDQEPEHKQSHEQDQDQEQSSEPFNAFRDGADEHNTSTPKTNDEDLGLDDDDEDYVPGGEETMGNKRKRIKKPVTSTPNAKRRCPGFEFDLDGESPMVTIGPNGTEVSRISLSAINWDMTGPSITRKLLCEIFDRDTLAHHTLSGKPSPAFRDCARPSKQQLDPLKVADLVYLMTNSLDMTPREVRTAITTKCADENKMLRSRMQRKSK
T2 sequence 2: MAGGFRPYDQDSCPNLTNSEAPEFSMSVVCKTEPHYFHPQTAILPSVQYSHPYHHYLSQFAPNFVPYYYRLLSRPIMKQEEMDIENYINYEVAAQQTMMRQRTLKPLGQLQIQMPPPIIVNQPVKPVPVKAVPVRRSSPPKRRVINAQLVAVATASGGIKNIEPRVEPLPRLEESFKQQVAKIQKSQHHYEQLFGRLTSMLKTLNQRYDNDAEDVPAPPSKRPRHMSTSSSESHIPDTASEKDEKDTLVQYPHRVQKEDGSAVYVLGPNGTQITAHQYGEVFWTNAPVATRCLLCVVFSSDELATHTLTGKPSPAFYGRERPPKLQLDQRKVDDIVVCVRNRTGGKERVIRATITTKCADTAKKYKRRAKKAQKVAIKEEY
T2 sequence 3: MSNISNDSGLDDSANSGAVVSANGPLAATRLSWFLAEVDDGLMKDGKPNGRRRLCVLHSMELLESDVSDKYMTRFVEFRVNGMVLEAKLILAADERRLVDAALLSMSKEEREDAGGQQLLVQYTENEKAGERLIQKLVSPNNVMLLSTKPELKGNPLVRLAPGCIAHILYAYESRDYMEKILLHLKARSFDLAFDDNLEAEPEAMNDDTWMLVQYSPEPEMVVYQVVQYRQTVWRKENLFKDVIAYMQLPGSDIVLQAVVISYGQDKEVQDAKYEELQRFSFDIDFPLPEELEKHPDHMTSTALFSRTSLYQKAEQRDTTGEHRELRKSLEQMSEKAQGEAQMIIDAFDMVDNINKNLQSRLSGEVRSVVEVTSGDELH

T3: FLAG-Elba1F;FLAG-Elba2F;FLAG-Elba3F (Drosophila melanogaster?;Drosophila …, UniProt Q9VR17;Q9VQD6;Q9VR19 1-363;1-381;1-379, ||)
T3 sequence 1: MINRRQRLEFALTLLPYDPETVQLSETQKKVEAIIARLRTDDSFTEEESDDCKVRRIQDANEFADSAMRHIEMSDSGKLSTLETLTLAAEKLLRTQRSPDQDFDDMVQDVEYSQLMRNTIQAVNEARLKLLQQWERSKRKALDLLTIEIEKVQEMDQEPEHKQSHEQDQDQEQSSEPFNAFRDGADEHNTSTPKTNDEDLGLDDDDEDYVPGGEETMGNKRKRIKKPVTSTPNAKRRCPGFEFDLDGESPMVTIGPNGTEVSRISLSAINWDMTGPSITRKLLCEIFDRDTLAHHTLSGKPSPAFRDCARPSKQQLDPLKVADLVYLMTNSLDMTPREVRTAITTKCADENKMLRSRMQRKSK
T3 sequence 2: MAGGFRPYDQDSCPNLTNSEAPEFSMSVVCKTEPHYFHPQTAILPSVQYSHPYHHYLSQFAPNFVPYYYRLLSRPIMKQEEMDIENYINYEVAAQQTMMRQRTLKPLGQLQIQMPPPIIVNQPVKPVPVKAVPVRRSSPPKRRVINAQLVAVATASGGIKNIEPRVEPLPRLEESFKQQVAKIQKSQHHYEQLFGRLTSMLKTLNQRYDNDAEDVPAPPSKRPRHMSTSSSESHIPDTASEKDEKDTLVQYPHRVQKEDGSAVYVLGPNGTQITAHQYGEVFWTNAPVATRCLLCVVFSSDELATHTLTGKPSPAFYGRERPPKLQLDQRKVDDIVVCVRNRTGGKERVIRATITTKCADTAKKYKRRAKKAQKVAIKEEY
T3 sequence 3: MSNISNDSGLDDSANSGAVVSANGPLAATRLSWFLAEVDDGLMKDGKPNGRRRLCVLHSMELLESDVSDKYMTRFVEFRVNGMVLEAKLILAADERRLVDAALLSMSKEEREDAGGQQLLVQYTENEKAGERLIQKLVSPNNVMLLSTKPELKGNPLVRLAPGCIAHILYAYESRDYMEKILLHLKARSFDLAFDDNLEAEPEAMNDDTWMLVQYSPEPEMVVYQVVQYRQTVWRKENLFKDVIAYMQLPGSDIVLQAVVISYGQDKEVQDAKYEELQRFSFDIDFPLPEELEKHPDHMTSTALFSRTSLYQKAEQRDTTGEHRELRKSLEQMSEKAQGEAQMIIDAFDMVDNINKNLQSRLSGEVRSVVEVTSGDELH

T4: GST-Elba1 BEN;GST-Elba2 BEN (Drosophila melanogaster?;Drosophila …, UniProt Q9VR17;Q9VQD6 255-363;268-381, |)
T4 sequence 1: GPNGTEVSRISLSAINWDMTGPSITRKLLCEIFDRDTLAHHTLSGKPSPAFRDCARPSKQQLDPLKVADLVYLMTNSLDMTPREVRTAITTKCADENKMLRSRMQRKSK
T4 sequence 2: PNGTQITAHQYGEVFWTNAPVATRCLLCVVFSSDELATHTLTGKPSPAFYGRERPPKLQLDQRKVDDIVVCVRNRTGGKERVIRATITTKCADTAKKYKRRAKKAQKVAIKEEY

T5: Elba1;Elba2;Elba3 (Drosophila melanogaster?;Drosophila …, UniProt Q9VR17;Q9VQD6;Q9VR19 1-363;1-381;1-379, ||)
T5 sequence 1: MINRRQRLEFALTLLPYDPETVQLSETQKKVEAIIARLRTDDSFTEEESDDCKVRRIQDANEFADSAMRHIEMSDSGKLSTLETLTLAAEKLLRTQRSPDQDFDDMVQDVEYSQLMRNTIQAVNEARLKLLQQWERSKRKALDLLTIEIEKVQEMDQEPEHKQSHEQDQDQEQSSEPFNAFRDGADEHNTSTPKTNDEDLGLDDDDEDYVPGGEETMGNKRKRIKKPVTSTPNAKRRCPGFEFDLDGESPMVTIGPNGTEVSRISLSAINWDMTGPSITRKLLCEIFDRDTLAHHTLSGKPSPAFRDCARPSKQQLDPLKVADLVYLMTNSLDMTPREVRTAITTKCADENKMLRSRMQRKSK
T5 sequence 2: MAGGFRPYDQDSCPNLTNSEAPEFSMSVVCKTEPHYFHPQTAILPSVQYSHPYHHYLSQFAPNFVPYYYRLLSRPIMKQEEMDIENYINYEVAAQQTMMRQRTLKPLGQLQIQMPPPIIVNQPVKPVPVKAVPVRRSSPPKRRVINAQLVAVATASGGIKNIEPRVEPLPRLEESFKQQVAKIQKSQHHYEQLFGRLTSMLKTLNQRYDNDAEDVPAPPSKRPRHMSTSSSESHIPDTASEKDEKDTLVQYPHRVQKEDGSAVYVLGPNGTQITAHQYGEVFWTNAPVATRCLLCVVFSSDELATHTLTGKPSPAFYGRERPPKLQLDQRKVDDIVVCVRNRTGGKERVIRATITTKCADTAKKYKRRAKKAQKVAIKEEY
T5 sequence 3: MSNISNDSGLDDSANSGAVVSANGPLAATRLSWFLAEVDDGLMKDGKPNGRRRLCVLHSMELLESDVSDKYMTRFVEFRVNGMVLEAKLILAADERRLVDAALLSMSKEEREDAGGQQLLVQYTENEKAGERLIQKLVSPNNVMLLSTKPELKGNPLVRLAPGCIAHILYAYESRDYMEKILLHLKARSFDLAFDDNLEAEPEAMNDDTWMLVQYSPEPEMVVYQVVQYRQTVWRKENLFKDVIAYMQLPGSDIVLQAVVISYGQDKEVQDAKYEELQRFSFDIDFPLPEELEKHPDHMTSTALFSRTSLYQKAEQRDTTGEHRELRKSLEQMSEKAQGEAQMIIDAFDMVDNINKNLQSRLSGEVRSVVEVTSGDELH


Columns and labels:
GST-Elba1F;GST-Elba2F = biological target: T1, GST-Elba1F;GST-Elba2F; assay: EMSA; co-translated; EMSA: ~0.1 M KCl, 12.5-250 ug/ml poly(dI-dC):poly(dI-dC), 1/2 hr at room temperature, 4% acrylamide gel, otherwise as Aoki et al. 2008; affinity beads: HBB (10); conditions: protein: ivt;ivt; tags: N-terminal FLAG and GST;N-terminal FLAG and GST; copies: 1;1
[1] = biological target: T2, GST-Elba1F;GST-Elba2F;FLAG-Elba3F; assay: EMSA; supershift by Elba3; EMSA: ~0.1 M KCl, 12.5-250 ug/ml poly(dI-dC):poly(dI-dC), 1/2 hr at room temperature, 4% acrylamide gel, otherwise as Aoki et al. 2008; affinity beads: HBB (10); conditions: protein: ivt;ivt;ivt; tags: N-terminal FLAG and GST;N-terminal FLAG and GST;N-terminal FLAG; copies: 1;1;1
[2] = biological target: T3, FLAG-Elba1F;FLAG-Elba2F;FLAG-Elba3F; assay: EMSA; EMSA: ~0.1 M KCl, 12.5-250 ug/ml poly(dI-dC):poly(dI-dC), 1/2 hr at room temperature, 4% acrylamide gel, otherwise as Aoki et al. 2008; affinity beads: HBB (10); conditions: protein: ivt;ivt;ivt; tags: N-terminal FLAG;N-terminal FLAG;N-terminal FLAG; copies: 1;1;1
[3] = biological target: T4, GST-Elba1 BEN;GST-Elba2 BEN; assay: as above; conditions: protein: ivt;ivt; tags: N-terminal FLAG and GST;N-terminal FLAG and GST; copies: 1;1
Elba1;Elba2;Elba3 [4] = biological target: T5, Elba1;Elba2;Elba3; assay: as above; conditions: protein: ivt;ivt;ivt; tags: none;none;none; copies: 1;1;1
Elba1;Elba2;Elba3 [5] = biological target: T5, Elba1;Elba2;Elba3; assay: competition; 100-fold excess; EMSA: ~0.1 M KCl, 12.5-250 ug/ml poly(dI-dC):poly(dI-dC), 1/2 hr at room temperature, 4% acrylamide gel, otherwise as Aoki et al. 2008; affinity beads: HBB (10); conditions: protein: ivt;ivt;ivt; tags: none;none;none; copies: 1;1;1; label: none

Row | Binder | binding result (GST-Elba1F;GST-Elba2F) | binding result [1] | binding result [2] | binding result [3] | binding result (Elba1;Elba2;Elba3 [4]) | binding result (Elba1;Elba2;Elba3 [5])
1 | Elba probe 27 bp (WT) (dsDNA) DNA 1: TGCAGCGCCCAATAAGCAAATGGCAGC DNA 2: GCTGCCATTTGCTTATTGGGCGCTGCA | binds | binds | binds | no binding | binds | 
2 | M6 oligo (dsDNA, 3-bp substitution) DNA 1: TGCAGCGCCCAATAAGCAAATGTACGC DNA 2: GCGTACATTTGCTTATTGGGCGCTGCA |  |  |  |  |  | binds
